According to PMC4319847 (PLoS ONE, 2015):

Target: Full-length human importin-α1 (h-importin-α1) (1–526) (human, UniProt P52292 1-526)
Experiment: ITC
Conditions: both partners purified

B1: SV40 NLS peptide (PKKKRKV) (peptide)
peptide: PKKKRKV
notes: source: synthetic peptide
For B1, the Kd was 102 ± 11 µM.
